Here are results for one protein from paper PMC12167799, “The role of human Shu complex in ATP-dependent regulation of RAD51 filaments during homologous recombination–associated DNA damage response” (The Journal of Biological Chemistry, 2025).

For orientation: Km means the concentration of substrate that gives half-maximal velocity. Usually Vmax stands for the rate approached at saturating substrate. Broadly, the kcat is the number of substrate molecules converted per active site and unit of time at saturation. For orientation: kcat/Km means the turnover number divided by the Michaelis constant.

Substrate in the data set: Nc1ncnc2c1ncn2[C@@H]1O[C@H](COP(=O)(O)OP(=O)(O)OP(=O)(O)O)[C@@H](O)[C@H]1O
Nature of the data set: malachite green ATPase assay, Michaelis-Menten fit. As to conditions: 1 μM protein, no DNA (basal activity), 37 °C. It counts as biochemical, Homo sapiens. The source says:
malachite green ATPase assay, Michaelis-Menten fit on hSWS1-SWSAP1 (human Shu complex)

B1: hSWS1-SWSAP1 (human Shu complex) (Homo sapiens) (protein)
chain: MPAAGPPLLLLGTPGSGKTALLFAAALEAAGEGQGPVLFLTRRPLQSMPRGTGTTLDPMRLQKIRFQYPPSTRELFRLLCSAHEAPGPAPSLLLLDGLEEYLAEDPEPQEAAYLIALLLDTAAHFSHRLGPGRDCGLMVALQTQEEAGSGDVLHLALLQRYFPAQCWLQPDAPGPGEHGLRACLEPGGLGPRTEWWVTFRSDGEMMIAPWPTQAGDPSSGKGSSSGGQP
notes: heterodimer co-expressed in High Five insect cells (baculovirus); SWSAP1 with TEV-cleavable N-terminal 6xHis tag (cleaved), SWS1 untagged; with Zinc finger SWIM domain-containing protein 7
Consider B1, for which the Km was 10.0 ± 0.2 mM, the maximum rate (Vmax) was 0.75 µM/min, the catalytic constant (kcat) worked out at 0.0125 s⁻¹ and the kcat/Km worked out at 1.3 M⁻¹ s⁻¹.
